Patent publication US20200368361A1
Where a chain is given by its changes, count along the chain named. Names may count otherwise. One block for each binder: values may come before it.

Columns and labels:
[1] = target: endogenously expressed human MSR1 on PMA-treated THP-1 cells (human) (UniProt P21757); experiment: ECL cell binding, PMA-treated THP-1
[2] = target: human MSR1 endogenously expressed on PMA-differentiated THP-1 cells (human) (UniProt P21757); experiment: imaging of PMA-differentiated THP-1 cells, 10 ug/mL antibody, Alexa 488 secondary
Chain of human MSR1 endogenously expressed on PMA-differentiated THP-1 cells (human) (P21757 whole entry): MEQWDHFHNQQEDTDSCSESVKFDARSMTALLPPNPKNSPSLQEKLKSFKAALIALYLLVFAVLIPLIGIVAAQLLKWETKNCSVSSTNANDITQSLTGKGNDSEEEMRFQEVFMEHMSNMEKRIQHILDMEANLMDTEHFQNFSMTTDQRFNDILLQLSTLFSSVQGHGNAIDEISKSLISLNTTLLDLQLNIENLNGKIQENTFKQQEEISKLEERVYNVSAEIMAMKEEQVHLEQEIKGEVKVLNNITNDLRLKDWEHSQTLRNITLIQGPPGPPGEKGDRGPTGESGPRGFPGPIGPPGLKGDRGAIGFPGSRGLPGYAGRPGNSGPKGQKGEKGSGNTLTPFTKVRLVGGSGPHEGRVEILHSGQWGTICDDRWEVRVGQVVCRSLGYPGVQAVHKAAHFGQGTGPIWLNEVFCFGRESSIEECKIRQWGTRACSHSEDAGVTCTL

Chain of endogenously expressed human MSR1 on PMA-treated THP-1 cells (human) (P21757 whole entry): as above

binding signal ratio to isotype control (11 nM) [1]: 5 fold
Total Binding at 4° C. [2]: 1.8e+06 RFU
Total Binding at 37° C. [2]: 4.11e+06 RFU
B1: H1H21227N-N297Q (antibody, human IgG1, V domains shown)
VH: QVQLVQSGAEVKKPGASVKVSCKVSGYTLTELSIHWVRQVPGKGLEWMGGFDPEEGETIFAQEFRDRVTLTEDTSPDTAYMELSSLKSEDAAVYYCTTPRYCNNGICYDYWGQGTLVTVSS
VL: DIQMTQSPSSLSASVGDRVTITCRASQSISNYLNWYQQKPGKAPKLLIYTASSLQSGVPSRFSGSGSGTDFTLTISSLQTEDFATYYCQQSYSNFPITFGQGTRLEIKR

binding signal ratio to isotype control (11 nM) [1]: 7 fold
B2: H1H21227N (antibody, human IgG1, V domains shown)
VH: B1 VH
VL: B1 VL

binding signal ratio to isotype control (11 nM) [1]: 6 fold
B3: H1H21227N-N297D (antibody, human IgG1, V domains shown)
VH: B1 VH
VL: B1 VL

binding signal ratio to isotype control (11 nM) [1]: 45 fold
B4: H1H21231N-N297Q (antibody, human IgG1, V domains shown)
VH: EVQLVESGGGLVQPGGSLRLSCAASGFTFSDHYMDWVRQAPGKGLEWVGRTRNKANSHTTEYTASVTGRFTISRDDSRNSLYLQMNSLKTEDTAVYYCVRAGIIGTLFDYWGQGTLVTVSS
VL: B1 VL with S7F, N31S, Y32F, Y36F, L46F, T50A, T80P, N94S, F95P

binding signal ratio to isotype control (11 nM) [1]: 42 fold
B5: H1H21231N (antibody, human IgG1, V domains shown)
VH: B4 VH
VL: B1 VL with S7F, N31S, Y32F, Y36F, L46F, T50A, T80P, N94S, F95P

binding signal ratio to isotype control (11 nM) [1]: 21 fold
Total Binding at 4° C. [2]: 483000 RFU
Total Binding at 37° C. [2]: 1.15e+06 RFU
B6: H1H27734P-N297Q (antibody, human IgG1, V domains shown)
VH: EVQLVESRGGLVQPGGSLRLSCAASGFTFSSYAMSWVRQAPGKGLEWVSAISGSGGSTFYADSVKGRFTISRDNSKNTVYLQMNSLRAEDTAVYYCAKALVLRFLEWLGDYWGQGTLVTVSS
VL: DIQMTQSPSTLSASVGDRVTITCRASQSISSWLAWFQQKPGKAPKLLIYKASSLESGVPSRFSGSGSGTEFTLTISSLQPDDFATYYCQQYKSYWTFGQGTKVEIKR

binding signal ratio to isotype control (11 nM) [1]: 25 fold
Total Binding at 4° C. [2]: 1.95e+06 RFU
Total Binding at 37° C. [2]: 5.45e+06 RFU
B7: H1H21234N-N297Q (antibody, human IgG1, V domains shown)
VH: QVQLQESGPGLVKPSETLSLTCTVTGGSISRNYWSWIRQPPGKGLEWIGYIYYSGSIDYNPSLKSRVTISVDTSKNQFSLKLSSMTAADTAVYYCARDRWNWKYGMDVWGQGTTVIVSS
VL: EIVLTQSPGTLSLSPGERATLSCRASQTVRNNYLAWYHQKPGQAPRLLIYGASSRATGIPDRFSGSGSGTDFTLTISRLEPEDFTVYYCHQYGNSPWTFGQGTKMEIKR

binding signal ratio to isotype control (11 nM) [1]: 18 fold
B8: H1H21234N (antibody, human IgG1, V domains shown)
VH: B7 VH
VL: B7 VL

binding signal ratio to isotype control (11 nM) [1]: 8 fold
B9: H2aM25695N (antibody, mouse IgG2a, V domains shown)
VH: B7 VH with D58N, T73M, S83N, M85V
VL: B7 VL with N32S, T85A, H90Q, N94S, P96Y

binding signal ratio to isotype control (11 nM) [1]: 13 fold
Total Binding at 4° C. [2]: 2.52e+06 RFU
Total Binding at 37° C. [2]: 5.92e+06 RFU
B10: H1H27747P-N297Q (antibody, human IgG1, V domains shown)
VH: QVQLVESGGAVVQPGRSLRLSCAASGFTFSYYGMHWVRQAPGKGLEWVAVISYDGSKKYYADSVKGRFTISRDNSKNTLYLQMNSLRAEDTAVYYCAKDLTVDFYYGMDVWGQGTTVTVSS
VL: DIQMTQSPSSVSASVGDRVTITCRASQGISSWLAWYQQKPGKAPKLLIYATSSLQSGAPSRFSGSGSGTDFTLTISSLQPEDFATYFCQQANSFPYTFGQGTKLEIKR

binding signal ratio to isotype control (11 nM) [1]: 66 fold
Total Binding at 4° C. [2]: 3.08e+06 RFU
Total Binding at 37° C. [2]: 7.16e+06 RFU
B11: H1H27754P-N297Q (antibody, human IgG1, V domains shown)
VH: EVQLVESGGGLVQPGGSLRLSCAASGFTFRTYAMTWVRQAPGKGLDWVSAITGDGGNTYYADSVKGRFTISRDNSKNTLYLQMNSLRAEDTAIYYCAKDQRFSFALYYFDYWGQGTLVTVSS
VL: B10 VL with K42N, T51A, S52F, A58V, F87Y, S93N, Y96W, L104V

binding signal ratio to isotype control (11 nM) [1]: 56 fold
B12: H2aM21229N (antibody, mouse IgG2a, V domains shown)
VH: EVQLVESGGGLVKPGGSLRLSCAASGFTFSRYSMNWVRQAPGKGLEWVSSISSSSSYIYYGDTVKGRFTISRDNAKKSLYLQMNSLRAEDTAVYYCVRDRGQLVLYFDYWGQGTLVTVSS
VL: DIQMTQSPASLSTSIRDRVTITCRASLSISSFLNWFQQRPGKAPKLLIYVASNLQSGVPSRFSDSGSGTDFTLTISSLQPEDFATYYCQQNYSTPPITFGQGTRLEIK

binding signal ratio to isotype control (11 nM) [1]: 9 fold
Total Binding at 4° C. [2]: 3.7e+06 RFU
Total Binding at 37° C. [2]: 5.61e+06 RFU
B13: H1H27739P-N297Q (antibody, human IgG1, V domains shown)
VH: EVQLVESGGGLVQPGGSLRLSCTASGFTFSSYAMSWVRQAPGKGLEWVSAISGTGSSTYFTDSVKGRFAISRDNSKNTLYLQMNSLRAEDTAVYYCAKDGEWLSTVTLFDYWGQGTLVTVSS
VL: EIVMTQSPATLSVSPGERATLSCRASQSVSSNLAWYQQKPGQAPRLLIYGASTRATGIPARFSGSGSGTDFTLTISSLQSEDFALYYCQQYFIWPPHPTFGPGTKVDIKR

binding signal ratio to isotype control (11 nM) [1]: 8 fold
Total Binding at 4° C. [2]: 1.93e+06 RFU
Total Binding at 37° C. [2]: 6.61e+06 RFU
B14: H1H27729P-N297Q (antibody, human IgG1, V domains shown)
VH: QVQLVESGGGLVKPGGSLRLSCAASGFIFSDYYMSWIRQAPGKGLEWVSYISSSGTTIYGDSVKGRFTMSRDNAKNSLYLQMNSLRAEDTAVYYCARNYALFDYWGQGTLVTVSS
VL: DIQMTQSPSSLSASVGDRVTITCQASQDISKYLNWYQQKPGKAPKLLIYYTSNLETGVPSRFSGSGSGTDFTFTISSLQPEDIATYYCHQSDYLPFTFGPGTKVDIKR
